# Laboratory results: patent US20230272413A1 (UNITED STATES OF AMERICA AS REPRESENTED BY THE SECRETARY OF …, published 2023)
# Target: the molecule itself
# Assay: SEC-MALS, homodimer
protein,measurement,value
"PLRV ^NRTD (other, Selenomethionine-labeled protein was used for phasing; also called Potato leafroll virus ^NRTD; WT PLRV ^NRTD) KHERFIAYVGIPMLTIQARENDDQIILGSLGSQRMKYIEDENQNYTNISSEYYSQSSMQAVPMYYFNVPKGQWSVDISCEGYQPTSSTSDPHRGRSDGMIAYSNADSDYWNVGEADGVKISKLRNDNTYRQGHPELEINSCHFREGQLLERDATISFHVEAPTDGRFFLVGPAIQKTAKYNYTISYGDWTDRDMELGLITVVLDEHLEGTGSANRVRRPPREGHIYMAS",binding result,binds
